Data as given in patent publication US20250179151A1, “SPIKE FURIN CLEAVAGE IS A SARS-COV-2 TARGETING STRATEGY TO BREAK THE CHAIN OF INFECTION CYCLE” (University of Virginia Patent Foundation, priority 2022, published 2025).
Entries after “also recorded” stand apart in the source; their conditions may differ. Peptide text beside a SMILES is read from it. * marks the point of attachment. Cbz = O=C(OCc1ccccc1)*

Legend:
spike S1/S2 cleavage = format: cell-based, SARS-CoV-2
[1] = system: pseudoviral spike S0 and S2; format: cell-based, SARS-CoV-2
spike S0 = format: cell-based, SARS-CoV-2
furin [2] = molecular target: T1, furin (Homo sapiens, UniProt P09958); format: biochemical; conditions: peptide inserted in rDR5-IgG4-Fc; 10 ng recombinant furin
T1 sequence (P09958 108-794): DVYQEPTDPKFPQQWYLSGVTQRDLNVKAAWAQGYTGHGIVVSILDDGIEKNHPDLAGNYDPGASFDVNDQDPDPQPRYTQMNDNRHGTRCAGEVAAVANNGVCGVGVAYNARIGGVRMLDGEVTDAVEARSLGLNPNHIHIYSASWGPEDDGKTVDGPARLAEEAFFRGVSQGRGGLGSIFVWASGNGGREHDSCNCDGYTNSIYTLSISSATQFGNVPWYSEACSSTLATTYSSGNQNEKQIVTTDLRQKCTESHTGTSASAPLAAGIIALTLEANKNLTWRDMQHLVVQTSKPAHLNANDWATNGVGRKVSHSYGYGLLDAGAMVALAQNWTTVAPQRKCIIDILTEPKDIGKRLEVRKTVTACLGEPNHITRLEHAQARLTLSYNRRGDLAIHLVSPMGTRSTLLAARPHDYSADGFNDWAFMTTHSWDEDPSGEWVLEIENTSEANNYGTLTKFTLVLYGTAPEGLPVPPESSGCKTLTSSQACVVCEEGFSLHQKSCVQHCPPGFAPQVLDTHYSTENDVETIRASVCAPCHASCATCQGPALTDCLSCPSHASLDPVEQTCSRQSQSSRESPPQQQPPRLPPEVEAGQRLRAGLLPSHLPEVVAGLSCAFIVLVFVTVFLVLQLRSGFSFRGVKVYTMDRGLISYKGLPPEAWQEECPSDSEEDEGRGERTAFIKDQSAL

[3] = molecular target: T2, IgG4-Fc tagged rFOLR1 antigen (UniProt P15328 25-233); experiment: ELISA, IgG4-Fc tagged rFOLR1 coated, detection with anti-IgG1-Fc HRP
T2 construct: extracellular domain; also called recombinant IgG4-Fc FOLR1
T2 sequence (P15328 25-233 limits assumed): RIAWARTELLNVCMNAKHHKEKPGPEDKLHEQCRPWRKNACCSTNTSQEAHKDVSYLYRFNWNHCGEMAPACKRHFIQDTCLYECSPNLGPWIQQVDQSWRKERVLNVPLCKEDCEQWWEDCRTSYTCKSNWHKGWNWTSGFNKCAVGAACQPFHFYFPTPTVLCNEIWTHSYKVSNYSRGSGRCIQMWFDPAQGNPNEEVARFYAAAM

[4] = system: 293-ACE2 and RFP-stable HCC-1806 cells; experiment: Syncytia in Spike-EGFP transfected co-culture of 293-ACE2 and HCC-1806 cells; format: cell-based; conditions: co-cultures, 100 μg antibody
spike S0 and S2 = format: cell-based, SARS-CoV-2
furin [5] = molecular target: T1, furin; experiment: Furin protease activity assay (fluorogenic substrate); format: biochemical; conditions: particularly at higher doses; compared with farletuzumab-cFuG1
Method: (§1) FIGS. 2A-2C. Furin inhibitory function and flexibility of Fc-extended FuG1 peptide strategy. (FIG. 2A) The binding kinetics of immobilized biotinylated furin against indicated farletuzumab-FuG1, farletuzumab-cFuG1, and Farletuzumab-IgG1 were measured using BLI. (FIGS. 2B and 2C) FuG1 and cFuG1 antibodies were tested using a competitive inhibitory furin assay kit, which measures fluorescent signal as an indicator of the protease activity kinetics.
Furin protease activity assay. Different concentrations of farletuzumab-FuGi, farletuzumab-cFuGi (25-250 ng) or furin assay buffer (negative control) were pre-incubated with 25 ng of furin (50 μl, 0.5 ng/μl in furin assay buffer) in a total reaction volume of 100 μl for 10 minutes at room temperature. […] The fluorescence intensity of the reaction mixture was monitored at excitation wavelength of 380 nm and detection of emission at wavelength 460 nm using 96 well microplate reader (BioTek Instruments Inc, USA). […] For kinetic study, fluorescence was measured immediately after adding the protease substrate and data was recorded every 1 minute for 15 min at Ex/Em=380 nm/460 nm.
To confirm furin binding and competing function, farletuzumab-FuG1 and farletuzumab-cFuG1 were expressed in the presence of furin inhibitors. Purified antibodies were analyzed for their Fc-extended peptide binding to biotinylated furin using BLI. […]

furin [6] = molecular target: T1, furin; experiment: BLI binding kinetics against immobilized biotinylated furin; conditions: compared to cFuG1
Method: as §1
Binding studies by BioLayer Interferometry (BLI). Binding measurements were performed using Bio-Layer Interferometry on FortéBio Red Octet 96 instrument (Pall) as described in Shivange et al., 2018. Biotin-Streptavidin based sensors were employed for the studies. Recombinant Fc linked DR5 variants were biotinylated using EZ-Link Sulfo-NHS—SS-Biotin (Thermo Scientific 21331) following the manufacturer's instructions. Unreacted Sulfo-NHS—SS-Biotin reaction was quenched by 50 mM Tris-Cl pH 7.4 and removed via dialyzing against PBS. For binding analysis biotinylated antigen (1 μg/mL) were immobilized on streptavidin (SA) biosensors (Pall) for 300 sec to ensure saturation. Associate and dissociation reactions were set in 96-well microplates filled with 200 μL of unbiotinylated DR5 agonist for 900 seconds. All interactions were conducted at 37° C. in PBS buffer containing 2 mg/ml BSA. These binding observations were also confirmed by biotinylating the agonist antibodies and probed against unbiotinylated DR5-Fc variants. Kinetic parameters (KON and KOFF) and affinities (KD) were analyzed using Octet data analysis software, version 9.0 (Pall).
To confirm furin binding and competing function, farletuzumab-FuG1 and farletuzumab-cFuG1 were expressed in the presence of furin inhibitors. Purified antibodies were analyzed for their Fc-extended peptide binding to biotinylated furin using BLI. […] The latter indicated a potential higher competitive furin occupancy time of FuG1 peptide with the increased antibody concentration (Hoare et al., 2020).

spike cleavage at S1/S2 = format: cell-based, SARS-CoV-2
293-ACE2 cells = format: cell-based; conditions: spike transfected 293-ACE2 cells, 24 hours

**Q.** For C[C@H]1CCC/C=C/[C@@H]2C[C@H](O)C[C@H]2[C@H](O)/C=C/C(=O)O1 [Bfa, Brefeldin-A], which “spike S1/S2 cleavage” value (spike S1/S2 cleavage) is on record?
**A.** completely inhibited

**Q.** How did the “pseudoviral S2 fragment generation” value [1] turn out when CC(C)C[C@@H](C=O)NC(=O)[C@H](CC(C)C)NC(=O)[C@H](CC(C)C)NC(=O)OCc1ccccc1 [MG132] (Cbz-Leu-Leu-Leu-aldehyde) was run?
**A.** remained inhibited

**Q.** And the “pseudoviral spike S0 destabilization” value [1]?
**A.** rescued spike S0 destabilization

**Q.** And the “furin processing of WT and ΔRRAR spike” value (spike S0)?
**A.** did not interfere

**Q.** What about the “rescue of spike S0 loss” value (spike S0) of the same molecule?
**A.** partial rescue of spike S0 loss

**Q.** What about the “total spike S0 signal” value (spike S0) of the same molecule?
**A.** at least two-fold higher; also recorded: significantly increased

**Q.** EGGGSGRERKARGGCPGS [FuG1 peptide] was tested. Which “cleavage by recombinant furin in vitro” value (furin [2]) did it give?
**A.** not cleaved

B1: farletuzumab-FuG1 (antibody)
heavy: EVQLVESGGGVVQPGRSLRLSCSASGFTFSGYGLSWVRQAPGKGLEWVAMISSGGSYTYYADSVKGRFAISRDNAKNTLFLQMDSLRPEDTGVYFCARHGDDPAWFAYWGQGTPVTVSSASTKGPSVFPLAPSSKSTSGGTAALGCLVKDYFPEPVTVSWNSGALTSGVHTFPAVLQSSGLYSLSSVVTVPSSSLGTQTYICNVNHKPSNTKVDKKVEPKSCDKTHTCPPCPAPEAAGGPSVFLFPPKPKDTLMISRTPEVTCVVVDVSHEDPEVKFNWYVDGVEVHNAKTKPREEQYNSTYRVVSVLTVLHQDWLNGKEYKCKVSNKALPAPIEKTISKAKGQPREPQVYTLPPSREEMTKNQVSLTCLVKGFYPSDIAVEWESNGQPENNYKTTPPVLDSDGSFFLYSKLTVDKSRWQQGNVFSCSVMHEALHNHYTQKSLSLSLPGKEGGGSGRERKARGGCPGS
light: DIQLTQSPSSLSASVGDRVTITCSVSSSISSNNLHWYQQKPGKAPKPWIYGTSNLASGVPSRFSGSGSGTDYTFTISSLQPEDIATYYCQQWSSYPYMYTFGQGTKVEIKRTVAAPSVFIFPPSDEQLKSGTASVVCLLNNFYPREAKVQWKVDNALQSGNSQESVTEQDSKDSTYSLSSTLTLSKADYEKHKVYACEVTHQGLSSPVTKSFNRGEC
notes: also called Farle-FuG1; Farletuzumab-FuG1 antibody
**Q.** Does B1 bind [3]?
**A.** binds

B2: farletuzumab-FuG1: anti-FOLR1 farletuzumab with FuG1 Fc-extended peptide (SEQ ID NO: 44) (antibody)
heavy: EVQLVESGGGVVQPGRSLRLSCSASGFTFSGYGLSWVRQAPGKGLEWVAMISSGGSYTYYADSVKGRFAISRDNAKNTLFLQMDSLRPEDTGVYFCARHGDDPAWFAYWGQGTPVTVSSASTKGPSVFPLAPSSKSTSGGTAALGCLVKDYFPEPVTVSWNSGALTSGVHTFPAVLQSSGLYSLSSVVTVPSSSLGTQTYICNVNHKPSNTKVDKKVEPKSCDKTHTCPPCPAPEAAGGPSVFLFPPKPKDTLMISRTPEVTCVVVDVSHEDPEVKFNWYVDGVEVHNAKTKPREEQYNSTYRVVSVLTVLHQDWLNGKEYKCKVSNKALPAPIEKTISKAKGQPREPQVYTLPPSREEMTKNQVSLTCLVKGFYPSDIAVEWESNGQPENNYKTTPPVLDSDGSFFLYSKLTVDKSRWQQGNVFSCSVMHEALHNHYTQKSLSLSLPGKEGGGSGRERKARGGCPGS
light: DIQLTQSPSSLSASVGDRVTITCSVSSSISSNNLHWYQQKPGKAPKPWIYGTSNLASGVPSRFSGSGSGTDYTFTISSLQPEDIATYYCQQWSSYPYMYTFGQGTKVEIKRTVAAPSVFIFPPSDEQLKSGTASVVCLLNNFYPREAKVQWKVDNALQSGNSQESVTEQDSKDSTYSLSSTLTLSKADYEKHKVYACEVTHQGLSSPVTKSFNRGEC
**Q.** Which syncytia load reduced [4] does the source give for B2 here?
**A.** ~30%

**Q.** What about the “S0 and S2 in co-culture lysates” value (spike S0 and S2) of the same molecule?
**A.** only partially reduced S2 conversion

**Q.** And the “inhibition of furin protease activity” value (furin [5])?
**A.** significant inhibition

**Q.** What about the “furin association rate (KON)” value (furin [6]) of the same molecule?
**A.** lower

**Q.** What about the “furin binding affinity (KD)” value (furin [6]) of the same molecule?
**A.** lower

**Q.** And the “furin dissociation rate (KOFF), fold reduced” value (furin [6])?
**A.** ~10 fold

B3: 6.29-IgG1: ACE-2-RBD neutralizing antibody (Rogers et al., 2020); SEQ ID NOs: 11 and 15 (protein)
light: DIQLTQSPSSLSASVGDRVTITCRASQTASSYLNWYQQKPGKAPNLLIYAASSLQSGVPSRFSGSGSVTDFTLTISSLQPEDFATYYCQQSYSTPPTFGQGTKVDIKRTVAAPSVFIFPPSDEQLKSGTASVVCLLNNFYPREAKVQWKVDNALQSGNSQESVTEQDSKDSTYSLSSTLTLSKADYEKHKVYACEVTHQGLSSPVTKSFNRGEC
heavy: QVQLVQSGSELKKPGASVKVSCKASGYTFATYALNWVRQAPGQGLEWMGWVNTNTGSPTYAQGFTGRFVFSFDTSVSTAYLQIRTLKAEDTAVYYCAVYYYDSGSPGWFDPWGQGTLVTVSSASTKGPSVFPLAPSSKSTSGGTAALGCLVKDYFPEPVTVSWNSGALTSGVHTFPAVLQSSGLYSLSSVVTVPSSSLGTQTYICNVNHKPSNTKVDKKVEPKSCDKTHTCPPCPAPEAAGGPSVFLFPPKPKDTLMISRTPEVTCVVVDVSHEDPEVKFNWYVDGVEVHNAKTKPREEQYNSTYRVVSVLTVLHQDWLNGKEYKCKVSNKALPAPIEKTISKAKGQPREPQVYTLPPSREEMTKNQVSLTCLVKGFYPSDIAVEWESNGQPENNYKTTPPVLDSDGSFFLYSKLTVDKSRWQQGNVFSCSVMHEALHNHYTQKSLSLSLGK
**Q.** What does the source list for B3?
**A.** inhibition of spike cleavage at S1/S2 (spike cleavage at S1/S2): non-inhibitory; syncytia blockade (293-ACE2 cells): significantly more effective; also recorded: significantly effective
